From US20220305082A1 (CENTRICSBIO, published 2022)
One block for each binder: values may come before it.

How the values were obtained:
mouse CD300c antigen = target: T1, mouse CD300c antigen (mouse); test: cell-based or functional assay
T1 sequence (A2A7V7 whole entry, looked up): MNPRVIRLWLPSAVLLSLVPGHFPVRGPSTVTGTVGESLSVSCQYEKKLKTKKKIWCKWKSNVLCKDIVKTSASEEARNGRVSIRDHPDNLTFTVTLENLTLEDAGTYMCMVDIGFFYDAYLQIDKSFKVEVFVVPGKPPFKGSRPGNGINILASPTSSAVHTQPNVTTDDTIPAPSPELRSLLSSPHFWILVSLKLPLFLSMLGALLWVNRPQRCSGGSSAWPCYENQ

[1] = target: T2, CD300a antigen (12449-H08H, Sino Biological) (UniProt Q9UGN4 18-180); test: binding ELISA with CD300a antigen
T2 construct: Bought recombinant antigen
T2 sequence (looked up): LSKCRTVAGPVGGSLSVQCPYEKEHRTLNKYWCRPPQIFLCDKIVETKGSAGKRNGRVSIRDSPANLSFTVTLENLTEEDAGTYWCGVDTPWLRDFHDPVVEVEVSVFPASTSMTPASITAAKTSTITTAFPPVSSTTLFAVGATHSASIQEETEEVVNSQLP
Method: To identify the antigen-binding ability of the anti-CD300c monoclonal antibody produced in Example 1, binding ELISA was performed. Specifically, each of the CD300c antigen (11832-H08H, Sino Biological) or CD300a antigen (12449-H08H, Sino Biological) in a coating buffer (0.1 M sodium carbonate, pH 9.0) was dispensed onto an ELISA plate at a concentration of 8 μg/mL per well, and then reaction was allowed to proceed at room temperature for 3 hours so that the antigen was bound to the plate. Washing was performed 3 times using phosphate buffered saline-Tween 20 (PBST) to remove unbound antigen, and then 300 μL of PBST supplemented with 5% bovine serum albumin (BSA) was added to each well. Reaction was allowed to proceed at room temperature for 1 hour, and washing was performed again using PBST. Then, the anti-CD300c monoclonal antibody was diluted in quadruplicate and added thereto. Reaction was allowed to proceed for 1 hour at room temperature for antigen binding. After 1 hour, washing was performed 3 times using PBST to remove unbound anti-CD300c monoclonal antibody, and then 4 μg/mL of an antibody for detection (HRP conjugated anti-Fc IgG) was added. […] Then, 2 N sulfuric acid solution was added to terminate the development, and the absorbance was measured at 450 nm to identify the antibodies that specifically bind to the CD300c antigen. […]

cancer cell proliferation inhibitory effects (CT26 mouse colorectal cancer cell line, CCK-8), higher than the control group (mouse CD300c antigen): 38%
B1: anti-CD300c monoclonal antibody SL18 (antibody, V domains shown)
VH: RVQLLESGGGLVQPGGSLRLSCAASGFTFSDYHMHWVRQAPGKGLEWVSTISSSGGYTYYAESVKSRFTISRDNSKNTLYLQMNSLRAEDTAVYYCARSIRLPLDYWGQGTLVTVSS
VL: QSVLTQPPSASGTPGQRVTISCSGNNIGSKGVHWYQQLPGTAPKLLIYEDSKRPSGVRDRFSGSKSGTSASLAISGLRSEDEADYYCQSYDSTKGVVFGGGTKLTVL

cancer cell proliferation inhibitory effects (CT26 mouse colorectal cancer cell line, CCK-8), higher than the control group (mouse CD300c antigen): 66%
B2: anti-CD300c monoclonal antibody CL7 (antibody, V domains shown)
VH: EVQLLESGGGLVQPGGSLRLSCAASGFTFSRYAMSWVRQAPGKGLEWVSAISGSGGSTYYADSVKGRFTISRDNSKNTLYLQMNSLRAEDTAVYYCARSSQGIFDIWGQGTLVTVSS
VL: QSVLTQPPSASGTPGQRVTISCSGNNIGTRRVHWYQQLPDTAPKLLIYSKNNRPSGVPDRFSGSKSGTSASLAISGLRSEDEADYYCAAWDDSLSGPVFGGGTKLTVL
notes: Full antibody from separate heavy and light chain vectors in 293T cells
binding result [1]: no binding (tested: 0.039, 0.63, and 10 µg/mL)

cancer cell proliferation inhibitory effects (CT26 mouse colorectal cancer cell line, CCK-8), higher than the control group (mouse CD300c antigen): 15%
B3: anti-CD300c monoclonal antibody CL10 (antibody, V domains shown)
VH: EVQLLESGGGLVQPGGSLRLSCAASGFTFSSYGMHWVRQAPGKGLEWVSAISGSGGSTYYADSVKGRFTISRDNSKNTLYLQMNSLRAEDTAVYYCASGYGLMDVWGQGTLVTVSS
VL: QSVLTQPPSASGTPGQRVTISCTRSSGIIASNYVQWYQQLPGTAPKLLIYRNNQRPSGVPDRFSGSKSGTSASLAISGLRSEDEADYYCSSYAGNNNLVFGGGTKLTVL
